This is an account of results in paper PMC8163841.

The target in the assay is Ino80 carrying a C-terminal 2xFlag-tag (S. cerevisiae) (UniProt P53115).
Sequence of UniProt P53115 (P53115 whole entry): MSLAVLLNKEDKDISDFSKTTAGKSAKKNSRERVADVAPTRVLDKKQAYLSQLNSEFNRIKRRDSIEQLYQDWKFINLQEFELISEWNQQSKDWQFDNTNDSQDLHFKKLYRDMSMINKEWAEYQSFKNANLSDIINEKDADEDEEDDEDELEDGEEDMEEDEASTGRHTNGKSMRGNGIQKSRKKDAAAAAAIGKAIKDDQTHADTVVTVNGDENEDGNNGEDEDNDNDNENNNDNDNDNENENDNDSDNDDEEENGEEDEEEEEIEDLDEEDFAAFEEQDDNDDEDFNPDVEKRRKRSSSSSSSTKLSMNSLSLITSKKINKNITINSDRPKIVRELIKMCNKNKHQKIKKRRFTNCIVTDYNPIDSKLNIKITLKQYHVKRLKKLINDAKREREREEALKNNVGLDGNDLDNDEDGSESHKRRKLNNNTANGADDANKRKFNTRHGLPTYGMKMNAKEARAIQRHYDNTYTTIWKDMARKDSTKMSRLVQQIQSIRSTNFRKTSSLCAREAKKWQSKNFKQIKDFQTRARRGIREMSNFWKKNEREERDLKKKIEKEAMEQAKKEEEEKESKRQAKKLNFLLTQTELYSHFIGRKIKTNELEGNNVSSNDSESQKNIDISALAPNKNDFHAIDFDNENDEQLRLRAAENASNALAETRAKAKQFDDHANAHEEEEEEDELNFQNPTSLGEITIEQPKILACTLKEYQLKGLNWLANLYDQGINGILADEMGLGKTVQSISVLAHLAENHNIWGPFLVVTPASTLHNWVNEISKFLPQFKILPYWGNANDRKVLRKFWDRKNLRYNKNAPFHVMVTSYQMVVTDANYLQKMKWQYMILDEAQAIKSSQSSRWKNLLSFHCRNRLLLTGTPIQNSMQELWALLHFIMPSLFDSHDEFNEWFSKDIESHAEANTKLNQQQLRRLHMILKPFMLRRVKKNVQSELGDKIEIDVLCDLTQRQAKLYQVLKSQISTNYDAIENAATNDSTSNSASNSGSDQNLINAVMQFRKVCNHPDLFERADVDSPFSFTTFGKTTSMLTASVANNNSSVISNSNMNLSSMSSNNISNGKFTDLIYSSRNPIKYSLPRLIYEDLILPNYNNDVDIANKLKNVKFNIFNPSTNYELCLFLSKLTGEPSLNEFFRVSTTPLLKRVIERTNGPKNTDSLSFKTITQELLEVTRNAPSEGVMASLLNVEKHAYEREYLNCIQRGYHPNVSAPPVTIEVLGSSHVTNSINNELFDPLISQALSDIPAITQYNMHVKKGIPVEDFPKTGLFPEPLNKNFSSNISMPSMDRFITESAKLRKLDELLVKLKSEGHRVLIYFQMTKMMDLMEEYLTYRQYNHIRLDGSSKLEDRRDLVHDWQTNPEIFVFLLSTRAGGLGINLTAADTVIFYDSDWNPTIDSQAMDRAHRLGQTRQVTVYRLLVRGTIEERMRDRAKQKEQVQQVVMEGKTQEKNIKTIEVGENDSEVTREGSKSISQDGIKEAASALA

B1: S. cerevisiae Reb1 with a Streptavidin tag at the C terminus (natural protein)
chain: MPSGHNDKNANQESVEEAVLKYVGVGLDHQNHDPQLHTKDLENKHSKKQNIVESSSDVDVNNNDDSNRNEDNNDDSENISALNANESSSNVDHANSNEQHNAVMDWYLRQTAHNQQDDEDDENNNNTDNGNDSNNHFSQSDIVVDDDDDKNKKDAGVGVDDDHQSMAMAAVAAAYTLSKNNNNNNSIANDSNSRKRQHDNGNNHENSQKKRKNNNDDDDRQIGNVDPELTTLGDADDNDTNNDVIDRDQLVHKAIIDADSITQHPDFQQYLNTAADTDDNEKLKHIKDHLMRTHGLNHQNKNHNDDTDDLSNSTKQYSELQKDSMLDSSLNKSRNYMEVLPKVISQDTQPHQQKSPSHDNEAGSVDNSEISQLLQSAATKASSLVSLSSSSATPSTSRSNNSKAFDKAEDAALERFINEYEAIERLTRQQVCERIWSSDRPKDNFWNNIYKVLPYRSSSSIYKHMRRKYHIFEQRGKWTAEEEQELAKLCAEKEGQWAEIGKTLGRMPEDCRDRWRNYVKCGTNRASNRWSVEEEELLKKVISDMLEEAQQQQSQLHPNLLEEEQHLLQDDQNDHRNNDEDDDDTASAAAAAAAAIQEQQQLLQQKQQDDDDAIAAAAAAASSSLGDNKDEDKPHDSLGIQLDDNSQNSMVPAPSATSTHSKSLSNTIRRHNNKLRKSLMGNGKLDFKDIINWTIVSERMGGTRSRIQCRYKWNKLVKREAIAKIQTVKDDDMLWIFEKLRDLGITEDSQVDWDELAALKPGMKLNGLELKLCYERMKKKVKGYKQKSINEISKELVDYFSSNISMKTEN
Molecule B1 gave an NADH-based ATPase activity of the WT INO80 complex with yGL167c-NCP601 mononucleosomes, with against without Reb1 of 2 fold.
